{"source": "the supplement of paper PMC10065799", "about": "“High-throughput profiling of sequence recognition by tyrosine kinases and SH2 domains using bacterial peptide display” (eLife, 2023);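 on SH2 binding enrichment of the phosphorylated peptide, bacterial display: peptide library displayed on the E. coli surface as eCPX fusions, selected cells deep-sequenced, score is each peptide's frequency after selection divided by its frequency in the input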;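 on phosphorylation enrichment, bacterial display: 11-residue human phosphosite peptides and single-mutation variants displayed on the E. coli surface, counted by deep sequencing, each peptide's frequency after selection divided by its frequency in the unselected input library; frequency after pTyr selection over input frequency; kinase dosed for 20-30% of maximal phosphorylation in three min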", "data": [{"target": "c-Src SH2", "assay": "SH2 binding enrichment of the phosphorylated peptide, bacterial display (enrichment ratio); higher = better substrate or ligand; peptides without Tyr show the background", "values": [{"sequence": "MKDLTYSSLCF [ALOX5_Y446_A447S]", "SH2 binding enrichment": 0.555}, {"sequence": "TMKSRYMELYD [BBS2_Y644]", "SH2 binding enrichment": 4.93}, {"sequence": "FETVKYFNNER [ABCB7_Y345_YF]", "SH2 binding enrichment": 0.509}, {"sequence": "PPNSPYMGSSP [KCNT1_Y740_I741M]", "SH2 binding enrichment": 0.481}, {"sequence": "ETSHNYHKFDS [MATR3_Y243]", "SH2 binding enrichment": 1.11}, {"sequence": "LQKPMYEVQWK [KIT_Y553]", "SH2 binding enrichment": 0.522}, {"sequence": "HNLDYYKETTN [FGFR3_Y648_K650E]", "SH2 binding enrichment": 0.732}, {"sequence": "CPFNLYAEQFS [HGD_Y40_L44F_YF]", "SH2 binding enrichment": 0.66}, {"sequence": "SVVLPYEPPEV [TP53_Y220_V218L]", "SH2 binding enrichment": 0.963}, {"sequence": "RFGKVYKGHLF [ROR2_Y488]", "SH2 binding enrichment": 0.331}, {"sequence": "SRNSKYNAEST [PSEN1_Y315_K311R]", "SH2 binding enrichment": 0.386}, {"sequence": "ASYGPNTRVQS [FOXL2_Y258_Y258N]", "SH2 binding enrichment": 0.543}, {"sequence": "SRGHQYQELPR [KCNH2_Y1009_R1007H]", "SH2 binding enrichment": 5.11}, {"sequence": "NTFEKYWPFFQ [GATM_Y103_YF]", "SH2 binding enrichment": 0.926}, {"sequence": "QRASDYFSQQM [GBP6_Y333_A331S_YF]", "SH2 binding enrichment": 0.464}, {"sequence": "DAGTDYVGISR [FREM2_Y2061]", "SH2 binding enrichment": 0.481}, {"sequence": "LFSGDCFRIQG [DDR2_Y740_Y740C_YF]", "SH2 binding enrichment": 0.553}, {"sequence": "APTSGYREFVH [IL4R_Y575_Q576R]", "SH2 binding enrichment": 0.518}, {"sequence": "TEGNEYVFRVA", "SH2 binding enrichment": 0.493}, {"sequence": "LDFPEYDGVDR [CASQ1_Y43]", "SH2 binding enrichment": 0.625}, {"sequence": "EYQKKYSDADI [CKAP5_Y1860_K1857Q]", "SH2 binding enrichment": 0.473}, {"sequence": "EEGESDVCSSD [DCX_Y125_Y125D]", "SH2 binding enrichment": 0.699}, {"sequence": "GLRSYYETSKM [MAGED2_Y449]", "SH2 binding enrichment": 0.842}, {"sequence": "RLRVVYPWTQR [HBB_Y36_L33R]", "SH2 binding enrichment": 0.636}, {"sequence": "YIPFRYPKEFQ [IDS_Y234_H229Y]", "SH2 binding enrichment": 0.572}, {"sequence": "TGNGYYFRVFS [MYBPC3_Y1136_I1131T]", "SH2 binding enrichment": 0.492}, {"sequence": "IITDFYVDMKF [MPP4_Y567_V562I_YF]", "SH2 binding enrichment": 0.452}, {"sequence": "WVYNHYRWIIW [BRCA2_Y2624]", "SH2 binding enrichment": 0.509}, {"sequence": "FYNSEYGELSE [FLT4_Y1337]", "SH2 binding enrichment": 0.748}]}, {"target": "SHP2-C SH2", "assay": "SH2 binding enrichment of the phosphorylated peptide, bacterial display (enrichment ratio); higher = better substrate or ligand; peptides without Tyr show the background", "values": [{"sequence": "MKDLTYSSLCF [ALOX5_Y446_A447S]", "SH2 binding enrichment": 0.617}, {"sequence": "TMKSRYMELYD [BBS2_Y644]", "SH2 binding enrichment": 1.2}, {"sequence": "FETVKYFNNER [ABCB7_Y345_YF]", "SH2 binding enrichment": 1.04}, {"sequence": "PPNSPYMGSSP [KCNT1_Y740_I741M]", "SH2 binding enrichment": 0.759}, {"sequence": "ETSHNYHKFDS [MATR3_Y243]", "SH2 binding enrichment": 0.881}, {"sequence": "LQKPMYEVQWK [KIT_Y553]", "SH2 binding enrichment": 0.633}, {"sequence": "HNLDYYKETTN [FGFR3_Y648_K650E]", "SH2 binding enrichment": 0.874}, {"sequence": "CPFNLYAEQFS [HGD_Y40_L44F_YF]", "SH2 binding enrichment": 0.519}, {"sequence": "SVVLPYEPPEV [TP53_Y220_V218L]", "SH2 binding enrichment": 0.861}, {"sequence": "RFGKVYKGHLF [ROR2_Y488]", "SH2 binding enrichment": 0.61}, {"sequence": "SRNSKYNAEST [PSEN1_Y315_K311R]", "SH2 binding enrichment": 0.522}, {"sequence": "ASYGPNTRVQS [FOXL2_Y258_Y258N]", "SH2 binding enrichment": 0.582}, {"sequence": "SRGHQYQELPR [KCNH2_Y1009_R1007H]", "SH2 binding enrichment": 0.807}, {"sequence": "NTFEKYWPFFQ [GATM_Y103_YF]", "SH2 binding enrichment": 1.24}, {"sequence": "QRASDYFSQQM [GBP6_Y333_A331S_YF]", "SH2 binding enrichment": 0.964}, {"sequence": "DAGTDYVGISR [FREM2_Y2061]", "SH2 binding enrichment": 0.758}, {"sequence": "LFSGDCFRIQG [DDR2_Y740_Y740C_YF]", "SH2 binding enrichment": 0.524}, {"sequence": "APTSGYREFVH [IL4R_Y575_Q576R]", "SH2 binding enrichment": 0.561}, {"sequence": "TEGNEYVFRVA", "SH2 binding enrichment": 0.69}, {"sequence": "LDFPEYDGVDR [CASQ1_Y43]", "SH2 binding enrichment": 0.667}, {"sequence": "EYQKKYSDADI [CKAP5_Y1860_K1857Q]", "SH2 binding enrichment": 0.808}, {"sequence": "EEGESDVCSSD [DCX_Y125_Y125D]", "SH2 binding enrichment": 0.924}, {"sequence": "GLRSYYETSKM [MAGED2_Y449]", "SH2 binding enrichment": 0.638}, {"sequence": "RLRVVYPWTQR [HBB_Y36_L33R]", "SH2 binding enrichment": 0.44}, {"sequence": "YIPFRYPKEFQ [IDS_Y234_H229Y]", "SH2 binding enrichment": 0.602}, {"sequence": "TGNGYYFRVFS [MYBPC3_Y1136_I1131T]", "SH2 binding enrichment": 0.753}, {"sequence": "IITDFYVDMKF [MPP4_Y567_V562I_YF]", "SH2 binding enrichment": 0.906}, {"sequence": "WVYNHYRWIIW [BRCA2_Y2624]", "SH2 binding enrichment": 1.18}, {"sequence": "FYNSEYGELSE [FLT4_Y1337]", "SH2 binding enrichment": 0.805}]}, {"target": "Grb2 SH2 (UniProt P62993)", "sequence (P62993 whole entry, looked up)": "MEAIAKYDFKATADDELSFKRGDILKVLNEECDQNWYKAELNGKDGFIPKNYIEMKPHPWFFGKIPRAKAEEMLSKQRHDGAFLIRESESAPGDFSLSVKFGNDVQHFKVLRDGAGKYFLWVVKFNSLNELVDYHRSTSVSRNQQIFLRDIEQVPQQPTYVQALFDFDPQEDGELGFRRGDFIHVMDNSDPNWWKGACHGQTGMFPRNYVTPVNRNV", "assay": "SH2 binding enrichment of the phosphorylated peptide, bacterial display (enrichment ratio); higher = better substrate or ligand; peptides without Tyr show the background", "values": [{"sequence": "MKDLTYSSLCF [ALOX5_Y446_A447S]", "SH2 binding enrichment": 0.756}, {"sequence": "TMKSRYMELYD [BBS2_Y644]", "SH2 binding enrichment": 0.809}, {"sequence": "FETVKYFNNER [ABCB7_Y345_YF]", "SH2 binding enrichment": 0.862}, {"sequence": "PPNSPYMGSSP [KCNT1_Y740_I741M]", "SH2 binding enrichment": 0.869}, {"sequence": "ETSHNYHKFDS [MATR3_Y243]", "SH2 binding enrichment": 0.623}, {"sequence": "LQKPMYEVQWK [KIT_Y553]", "SH2 binding enrichment": 0.771}, {"sequence": "HNLDYYKETTN [FGFR3_Y648_K650E]", "SH2 binding enrichment": 1.24}, {"sequence": "CPFNLYAEQFS [HGD_Y40_L44F_YF]", "SH2 binding enrichment": 0.942}, {"sequence": "SVVLPYEPPEV [TP53_Y220_V218L]", "SH2 binding enrichment": 0.791}, {"sequence": "RFGKVYKGHLF [ROR2_Y488]", "SH2 binding enrichment": 1.13}, {"sequence": "SRNSKYNAEST [PSEN1_Y315_K311R]", "SH2 binding enrichment": 0.774}, {"sequence": "ASYGPNTRVQS [FOXL2_Y258_Y258N]", "SH2 binding enrichment": 0.872}, {"sequence": "SRGHQYQELPR [KCNH2_Y1009_R1007H]", "SH2 binding enrichment": 1.04}, {"sequence": "NTFEKYWPFFQ [GATM_Y103_YF]", "SH2 binding enrichment": 1.5}, {"sequence": "QRASDYFSQQM [GBP6_Y333_A331S_YF]", "SH2 binding enrichment": 0.668}, {"sequence": "DAGTDYVGISR [FREM2_Y2061]", "SH2 binding enrichment": 0.938}, {"sequence": "LFSGDCFRIQG [DDR2_Y740_Y740C_YF]", "SH2 binding enrichment": 0.844}, {"sequence": "APTSGYREFVH [IL4R_Y575_Q576R]", "SH2 binding enrichment": 0.882}, {"sequence": "TEGNEYVFRVA", "SH2 binding enrichment": 0.708}, {"sequence": "LDFPEYDGVDR [CASQ1_Y43]", "SH2 binding enrichment": 1.57}, {"sequence": "EYQKKYSDADI [CKAP5_Y1860_K1857Q]", "SH2 binding enrichment": 1}, {"sequence": "EEGESDVCSSD [DCX_Y125_Y125D]", "SH2 binding enrichment": 0.922}, {"sequence": "GLRSYYETSKM [MAGED2_Y449]", "SH2 binding enrichment": 0.839}, {"sequence": "RLRVVYPWTQR [HBB_Y36_L33R]", "SH2 binding enrichment": 1.06}, {"sequence": "YIPFRYPKEFQ [IDS_Y234_H229Y]", "SH2 binding enrichment": 0.768}, {"sequence": "TGNGYYFRVFS [MYBPC3_Y1136_I1131T]", "SH2 binding enrichment": 0.87}, {"sequence": "IITDFYVDMKF [MPP4_Y567_V562I_YF]", "SH2 binding enrichment": 0.799}, {"sequence": "WVYNHYRWIIW [BRCA2_Y2624]", "SH2 binding enrichment": 1.29}, {"sequence": "FYNSEYGELSE [FLT4_Y1337]", "SH2 binding enrichment": 0.886}]}, {"target": "Fes (UniProt P07332)", "sequence (P07332 whole entry, looked up)": "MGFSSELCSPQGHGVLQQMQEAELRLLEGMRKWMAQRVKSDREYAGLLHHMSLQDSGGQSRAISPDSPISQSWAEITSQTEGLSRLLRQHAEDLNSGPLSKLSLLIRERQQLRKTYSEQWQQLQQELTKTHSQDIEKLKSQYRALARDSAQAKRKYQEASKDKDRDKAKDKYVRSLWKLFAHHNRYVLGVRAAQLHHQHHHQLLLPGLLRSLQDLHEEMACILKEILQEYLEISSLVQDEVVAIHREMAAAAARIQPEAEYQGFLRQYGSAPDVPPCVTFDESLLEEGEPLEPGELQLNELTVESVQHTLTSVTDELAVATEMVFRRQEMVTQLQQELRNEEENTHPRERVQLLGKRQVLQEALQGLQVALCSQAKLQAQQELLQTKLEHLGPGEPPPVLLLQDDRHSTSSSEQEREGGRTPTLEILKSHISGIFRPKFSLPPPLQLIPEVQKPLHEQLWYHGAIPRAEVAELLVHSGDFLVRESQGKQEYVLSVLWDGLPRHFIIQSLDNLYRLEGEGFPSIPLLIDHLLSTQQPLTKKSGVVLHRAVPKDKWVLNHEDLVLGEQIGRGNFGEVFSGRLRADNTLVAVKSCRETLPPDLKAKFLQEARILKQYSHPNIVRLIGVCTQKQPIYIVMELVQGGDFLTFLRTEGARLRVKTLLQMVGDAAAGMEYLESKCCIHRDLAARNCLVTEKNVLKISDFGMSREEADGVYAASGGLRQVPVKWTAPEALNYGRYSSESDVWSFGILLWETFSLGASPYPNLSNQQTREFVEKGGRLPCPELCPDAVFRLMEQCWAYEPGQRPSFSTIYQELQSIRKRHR", "assay": "phosphorylation enrichment, bacterial display (enrichment ratio); higher = better substrate or ligand; peptides without Tyr show the background", "values": [{"sequence": "MKDLTYSSLCF [ALOX5_Y446_A447S]", "phosphorylation enrichment": 1.35}, {"sequence": "TMKSRYMELYD [BBS2_Y644]", "phosphorylation enrichment": 0.868}, {"sequence": "FETVKYFNNER [ABCB7_Y345_YF]", "phosphorylation enrichment": 0.898}, {"sequence": "PPNSPYMGSSP [KCNT1_Y740_I741M]", "phosphorylation enrichment": 0.868}, {"sequence": "ETSHNYHKFDS [MATR3_Y243]", "phosphorylation enrichment": 0.551}, {"sequence": "LQKPMYEVQWK [KIT_Y553]", "phosphorylation enrichment": 1.32}, {"sequence": "HNLDYYKETTN [FGFR3_Y648_K650E]", "phosphorylation enrichment": 1.06}, {"sequence": "CPFNLYAEQFS [HGD_Y40_L44F_YF]", "phosphorylation enrichment": 1.54}, {"sequence": "SVVLPYEPPEV [TP53_Y220_V218L]", "phosphorylation enrichment": 1.12}, {"sequence": "RFGKVYKGHLF [ROR2_Y488]", "phosphorylation enrichment": 0.924}, {"sequence": "SRNSKYNAEST [PSEN1_Y315_K311R]", "phosphorylation enrichment": 0.441}, {"sequence": "ASYGPNTRVQS [FOXL2_Y258_Y258N]", "phosphorylation enrichment": 0.596}, {"sequence": "SRGHQYQELPR [KCNH2_Y1009_R1007H]", "phosphorylation enrichment": 0.672}, {"sequence": "NTFEKYWPFFQ [GATM_Y103_YF]", "phosphorylation enrichment": 1.09}, {"sequence": "QRASDYFSQQM [GBP6_Y333_A331S_YF]", "phosphorylation enrichment": 1.49}, {"sequence": "DAGTDYVGISR [FREM2_Y2061]", "phosphorylation enrichment": 0.64}, {"sequence": "LFSGDCFRIQG [DDR2_Y740_Y740C_YF]", "phosphorylation enrichment": 1.15}, {"sequence": "APTSGYREFVH [IL4R_Y575_Q576R]", "phosphorylation enrichment": 0.561}, {"sequence": "TEGNEYVFRVA", "phosphorylation enrichment": 1.28}, {"sequence": "LDFPEYDGVDR [CASQ1_Y43]", "phosphorylation enrichment": 2.01}, {"sequence": "EYQKKYSDADI [CKAP5_Y1860_K1857Q]", "phosphorylation enrichment": 0.998}, {"sequence": "EEGESDVCSSD [DCX_Y125_Y125D]", "phosphorylation enrichment": 0.939}, {"sequence": "GLRSYYETSKM [MAGED2_Y449]", "phosphorylation enrichment": 0.762}, {"sequence": "RLRVVYPWTQR [HBB_Y36_L33R]", "phosphorylation enrichment": 0.711}, {"sequence": "YIPFRYPKEFQ [IDS_Y234_H229Y]", "phosphorylation enrichment": 0.656}, {"sequence": "TGNGYYFRVFS [MYBPC3_Y1136_I1131T]", "phosphorylation enrichment": 1.3}, {"sequence": "IITDFYVDMKF [MPP4_Y567_V562I_YF]", "phosphorylation enrichment": 1.66}, {"sequence": "WVYNHYRWIIW [BRCA2_Y2624]", "phosphorylation enrichment": 1.11}, {"sequence": "FYNSEYGELSE [FLT4_Y1337]", "phosphorylation enrichment": 1.36}]}]}
